± gives the uncertainty stated by the source.
Experiment: amyloid nucleation score (Sup35N fusion, yeast selection) (log enrichment); library NNK1; higher = more nucleation; inactive = no reads after selection
Outline: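 Three technical output replicates were used for random libraries. Psi-negative yeast expressing peptides of 20 random codons fused to Sup35N were induced with 100 μM copper sulfate for 24 hours and grown 7 days at 30°C on medium lacking adenine and uracil, and input and output plasmid inserts were Illumina-sequenced, excluding sequences with under 100 input reads. The nucleation score is the DiMSum log enrichment of output over input reads, centred on the mode score of non-aggregating sequences.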

| Substance | amyloid nucleation score |
| --- | --- |
| IFCITGAGLLDRCSSRTLAS | -0.175 ± 0.41 |
| SCDMAEFSEDLTLCLLNHK | -0.651 ± 1.7 |
| LDWHKLRDWVKLGW | -0.255 ± 0.73 |
| SSGSMCTLFSSE | 1.75 ± 0.57 |
| FWPFHDDLDVVSAFCYIRIL | -0.707 ± 0.82 |
| NNPDTMSI | 0.44 ± 0.56 |
| LSRILLRKNC | 0.224 ± 0.61 |
| QRNVPIGLVRYDAV | 0.45 ± 1.1 |
| GSSQWFRQVLYFRQSPGWGS | -0.33 ± 0.65 |
| KSLSRFRVTNSKEYMSAMGT | -0.299 ± 0.26 |
| WGNLASRLQALDQVRRSGSM | -0.56 ± 0.57 |
| AGMTFRFLHEVSSSQSN | 3.06 ± 0.13 |
| VRARVLSKTIMMTTYERHLV | -0.691 ± 1.7 |
| SWDEAVSWHSRSVVSAGGVA | -0.813 ± 1.3 |
| DGKKYTVMSFSEQSK | -0.368 ± 1.7 |
| ASGFESCDTEVVGFRGVCYA | 1.42 ± 0.51 |
| VVMLSVSPLTIHRGSFRDCS | 2.97 ± 0.1 |
| VCTCFSSWAWEVNF | 3.28 ± 0.083 |
| MGMGNVYAIQFCPMILWD | 6.783 ± 0.057 |
| YFAEDSCERFAPDWVRLSTR | -0.425 ± 1.3 |
| IHHSLHYPLYSWKSNWRTWG | -0.353 ± 0.61 |
| KLDNCGCGRGCEQLDVVQSQ | 0.044 ± 0.53 |
| LSGMDTLGIVRCAVA | -0.325 ± 0.46 |
| DLFICSSARAVNKIFRVLHA | 0.511 ± 0.91 |
| SLGFIFTEILYIFIVAWFII | 0.198 ± 0.47 |

| Substance | amyloid nucleation score |
| --- | --- |
| AHGMYAEGVTWSALVSSRCE | 2.56 ± 0.11 |
| TLHTKSGLNIMARYPMAERG | 1.31 ± 0.8 |
| SVGMVLFLGCGLLLFRFLCG | -0.359 ± 1.2 |
| NNKSEVF | 1.46 ± 0.74 |
| MVTTWVHGYVWRANGQTLFR | 1.28 ± 0.7 |
| IMNMIA | 0.455 ± 0.48 |
| DAGGYLQEIARTPFTVARQQ | 0.195 ± 0.35 |
| VSPIMFAYSMSCMSFYGEHG | 5.04 ± 0.1 |
| ERAQYMSRTVRRVSFKSFFC | 3.55 ± 0.13 |
| PNIRHYVYNHN | inactive |
| VTKLNMILMVGTVYGSNIGV | 6.782 ± 0.05 |
| WGSCISFRNRGMCLILDSVC | 0.037 ± 0.37 |
| FWSYSMP | inactive |
| FFRRS | 0.924 ± 0.26 |
| RQYDMDLVWKRSQNARKRS | 0.033 ± 0.7 |
| MPDFSWA | -0.115 ± 1.2 |
| WVSNCIFDAGLWRSYYRMGI | 0.74 ± 0.34 |
| FGLYYLSNSEFMYVDRFHLG | -0.575 ± 0.38 |
| DVFHTLIRSRLDFFFYKRER | 0.14 ± 0.4 |
| SVVLQTHFAFSSFELKSKVA | -0.54 ± 0.39 |
| SLCVWDSFNPERTGLFMRWI | 0.99 ± 0.93 |
| PGSCFVMCCDLDKRKGSADE | -0.559 ± 0.62 |
| MHRESR | 1.2 ± 0.36 |
| SSIESSYGKFLRGIVSESIK | 0.485 ± 0.55 |
| HCYGIVEFSSSCCEFFRHGV | 6.36 ± 0.092 |

| Substance | amyloid nucleation score |
| --- | --- |
| WWVYRARFNCCHLYKVYLHC | 0.221 ± 0.88 |
| SWGMVFLNSRVPWRVMFNSC | 0.154 ± 0.48 |
| AARELKIVTRVMHFDADREA | 0.103 ± 0.43 |
| LNKTSFPWLKSYKVWRNVMD | 1.71 ± 0.58 |
| QGSPARMCVL | 0.629 ± 1 |
| GPFIVIPK | -0.149 ± 0.64 |
| PRELEKFTLQKSGLHPWISL | -0.686 ± 1.4 |
| SLPFVTLLNAMCVCSGANCL | 8.449 ± 0.045 |
| MTDMVVSCCMPAEVQRRSGA | 0.009 ± 1.1 |
| WFWMYGKGKESQSVVNGGGT | 0.861 ± 0.53 |
| RRMVTCLQLIVRNLRSCACC | inactive |
| IDCGIVRWKNRCGAYAFGVD | -1.52 ± 2.4 |
| MVVVVRTVLQVMRGR | 0.189 ± 0.76 |
| SPPMSKLVMATRVLKCMDPS | 0.086 ± 0.79 |
| NYSEPDFKFHCVYGVYAMWG | 0.403 ± 0.88 |
| NYIMTRHPPLGISLPEVGRS | -0.81 ± 0.85 |
| ERSARGGHPMLAFYMTIPTP | -0.067 ± 1.2 |
| ILTFQSCRRFACKAFMFRRR | 2.07 ± 0.16 |
| FFGHAEDFLYMIRVHAGNNL | -0.379 ± 0.41 |
| YKNIPFTYGSFVLASYMSRK | 0.368 ± 0.63 |
| IFEWFVPLEWSV | 0.012 ± 1.4 |
| IKGFALVWTPFGLAFFYRG | 0.113 ± 0.95 |
| LKFKARLRRTLPVQQNRAIG | inactive |
| YEPEGIQSIWRCSAVRHAKA | -0.286 ± 1.9 |
| QHYMQVIDLGSWWSSWVYFI | -0.005 ± 0.97 |

| Substance | amyloid nucleation score |
| --- | --- |
| VYPCACVFYSLGVGLQNEET | 6.27 ± 0.089 |
| AGRTILKIILQVLALLAPYK | -0.309 ± 1.4 |
| DSTLTVKFLMMVRYMVCSVG | 1.71 ± 0.25 |
| HIAHTEPGAIWV | inactive |
| YECKVYKSK | 0.466 ± 0.47 |
| NDVFEHIITFCILRVYHMFC | -0.577 ± 0.3 |
| LWSLDSDSCKVLGDSGCGFF | 0.133 ± 0.34 |
| VGGGSRWDIRDNSNQSIIPM | -0.338 ± 0.34 |
| AVGKYLWASVGIAFDRQSIM | -0.837 ± 2.4 |
| AHSCSLV | 0.61 ± 0.7 |
| RLRTNVLSNRVGDPIMTSHV | 0.158 ± 0.54 |
| ECDSAFRSQGGGLACLFRMK | -0.171 ± 0.42 |
| NKEVNYTNIINCVGIRGCRL | 4.77 ± 0.051 |
| HAVSDFIPG | 0.69 ± 0.41 |
| EISVKECGGSLDYNANLRDR | inactive |
| KSLFVLVWTLLLPT | -0.223 ± 0.35 |
| DVYVSCGYVSQMGPHAEWDG | 0.102 ± 0.54 |
| MNASITFSVLWVACETKCRV | 3.42 ± 0.14 |
| MLLWSVSLNKKKTLKECRRQ | 1.16 ± 0.67 |
| PNDPGKLSHGVSVVLYFDEL | 1.5 ± 0.39 |
| SMNHVFYYFIRMWTSM | 0.156 ± 0.63 |
| LENYDRGDSTRHIDCRLLFL | 0.275 ± 0.52 |
| TNSCNLELAVICMSSYWG | 4.71 ± 0.069 |
| RTRLFHDLLLCAAHIRLRIR | 0.133 ± 0.38 |
| NRLIGGLFSCVCTADQSTHS | 8.419 ± 0.047 |

| Substance | amyloid nucleation score |
| --- | --- |
| NNGAVVSGS | -0.046 ± 0.25 |
| DFCVQNFMMLKFKLCYRRSL | -0.134 ± 1.2 |
| IFLVCVSKN | 0.601 ± 0.35 |
| EIHGCGCPLSKDGGGAFMWA | 1.22 ± 0.63 |
| YLLRVCAAMMFSKLCNG | 6.028 ± 0.049 |
| WLHNIQRYTFFSKLRNQRRR | -0.442 ± 0.76 |
| WIMVFWEFVNLTCNNRILDN | -0.588 ± 0.72 |
| MGPMCSQPLHVPSMVSMVTL | 0.735 ± 0.35 |
| WHPRSLVPPTRL | 0.758 ± 0.56 |
| ADTCPFCDHWTQSSNRWQEL | 0.692 ± 0.41 |
| ENRTSNFPYKVR | 0.421 ± 0.26 |
| ADSHYSDVGGYWMNSSLCK | 1.31 ± 0.8 |
| FFLVRMCKSRDVTVTVGGSH | 1.53 ± 0.14 |
| LRTNTWCYGESSRLWGWCGG | 0.067 ± 1.2 |
| SPTTKCLPSERSSINCNLMT | 0.311 ± 0.68 |
| KMGYFE | 0.915 ± 0.45 |
| PFLYIDSF | -1.2 ± 1.9 |
| VYGSIKSVEANTVWML | 3.32 ± 0.16 |
| DMHQRMPVFHGHRATYCC | 0.102 ± 0.56 |
| GLTGLTLWARATRRRVGTLS | -0.153 ± 0.59 |
| AVLNQYRELKQAGSFYVSTM | 0.618 ± 0.52 |
| KSDVAARVCDER | 0.526 ± 0.31 |
| LIMVFVDSLRNRLELCFFQC | inactive |
| NGMVTLYR | 0.977 ± 0.55 |
| VKYTYDS | -0.238 ± 0.65 |

| Substance | amyloid nucleation score |
| --- | --- |
| RMHYIG | 0.106 ± 0.43 |
| MKSCASDPVCCPQTTRSTSL | 0.742 ± 0.49 |
| YQETPVNPEPVV | -0.01 ± 0.38 |
| DDYTGSEVNIITIV | -1.43 ± 0.44 |
| TTPGALSSRTMSMPDVLGIE | 1.37 ± 0.5 |
| KDTQCHIARATRRGVRGNVF | -0.48 ± 1.1 |
| YSLLVHIFMLLWSYDCLTVT | -1.54 ± 2.7 |
| CGITGMATVLNELPKLKHML | 0.202 ± 0.62 |
| NYLLWVQVWCRDWGNWGIMG | 1.41 ± 0.81 |
| LPNRCASIVRQIVQVWCVS | 2.41 ± 0.12 |
| PIHYEPSKAVYYTQFRGGMG | -0.184 ± 0.42 |
| RDIRVHATDLNENNCVAHCR | -0.356 ± 0.32 |
| SYHPLHVCCSSVFRELVIRD | 2.11 ± 0.43 |
| PYKLGCICITNDFSQAPTVA | -0.652 ± 0.92 |
| MISMFSLFLIRMIM | -0.052 ± 0.54 |
| YPGRWSSYRLEGSTKNARNG | inactive |
| SNECLRNGAFYDCPVREAWM | -0.346 ± 0.27 |
| SLNFTDHIYYMDGLLIAVVE | 0.358 ± 0.32 |
| RFWINIPKYSTIL | -0.751 ± 1.7 |
| IRRAENLFIRYSHR | 0.855 ± 0.58 |
| NGRFSADS | -1.77 ± 1.6 |
| WGEFYVNSSNFVNMQSVWQQ | -0.257 ± 1.7 |
| LETINSSGRHF | 2.74 ± 0.091 |
| YTFQIILNSVPWYFCAMLWE | 5.54 ± 0.1 |
| NRFNRYNVFPVYDQNLESPL | 0.205 ± 0.38 |

| Substance | amyloid nucleation score |
| --- | --- |
| AVNYIADFGTVDRCCITFPL | 0.645 ± 0.4 |
| RDTNKSIQ | 0.208 ± 0.56 |
| GFPRCVWFNSSVIQESSFFV | 0.571 ± 1.2 |
| LEQCYAAHSTYKMMPWAYKA | 0.091 ± 0.33 |
| CLRDNSRRGRNVQSL | -1 ± 1.5 |
| WGVALRDAATAVDVGLVVRF | 0.37 ± 0.62 |
| CELPGLGVLLVGGKPMEWLN | inactive |
| SLEWFSRWSN | 1.15 ± 0.37 |
| DCLWPLVSMFLVPLRASKVR | 0.128 ± 0.44 |
| LRAYSVAFYRLPHVSN | 1.35 ± 0.79 |
| AHSGMRLL | 0.569 ± 0.75 |
| DGGNVV | 0.452 ± 1.2 |
| DRYYAGF | 0.464 ± 0.55 |
| KTRFLKYDNLSWTDKSNWVL | inactive |
| NILMFEMVVRSFIGLTEKFL | 0.69 ± 1 |
| GMSCWGLCSYNTRAYRNNPT | -0.151 ± 0.63 |
| SPPFQSELMLPLRLSGLVSS | 1.28 ± 0.93 |
| RRSQCSVEPGVWHRVRSFLV | 0.35 ± 0.77 |
| YYIEVLILCWACQNALSRAS | 0.5 ± 0.9 |

From the supplement of paper PMC12042874
